Among the data in patent CN116063506A (HUADAO SHANGHAI BIOMEDICAL CO LTD, dated 2023) are EC50 values, retold here.

In this assay the target is T1, CD4抗原 (表面抗原分化簇4, Cluster of Differentiation 4) (UniProt P01730 26-458, limits assumed).
T1 construct: whole, on cells; also called 细胞表面的CD4抗原; Nalm6-CD4
In words: flow cytometry on Nalm6-CD4 cells; antibody from 4 μg/mL in 4-fold dilutions, 10 concentrations; APC goat anti-mouse IgG secondary.

B1: 分离的抗体(标记为CD4-14) (antibody, V domains shown)
VH: QVQLVQSGPELKKPGASVKVSCKASGYTFTDYVIHWVKQATGQGLEWIGEIYPGSGSAYSNAKFKDRVTMTADKSSNTAYMELSSLTSDDTAVYFCARRGNGTGFAYWGQGTLVTVSS
VL: DIVLTQSPASLAVSLGQRATITCKAGQSVDYDGDSYMNWYQQKPGQPPKLLIYVASNLESGIPARFSGSGSGTDFTLNIHPVEENDAATYYCQQSYKDPLTFGQGTKLEIK
notes: also called 分离抗体; 本发明的分离抗体
For the molecule B1, the EC50 was 0.152 µg/mL.
